Results on three sequences are retold here after US9062353B2, “Electrically conductive polymer electrodes with incorporated viruses” (THE REGENTS OF THE UNIVERSITY OF CALIFORNIA, priority 2010, dated 2015).

Holding throughout (conditions): phage-displayed peptide
For one experiment, the target named is T1, PSMA monomer (Homo sapiens, UniProt Q04609).
T1 construct: purchased Molecular Express, Inc
Kind of experiment: phage-based ELISA, binding to PSMA monomer. As to the method: (§1) A Nunc Maxisorp plate was coated with 10 μg/mL PSMA monomer or dimer protein for 1 h. The coating solution was removed, and the plate was blocked for 1 h with 0.2% BSA in PBS and washed 5 times with PT (300 μL/well). The wells were then incubated with phage displaying PSMA-binding peptides (100 μL/well) at the indicated concentrations for 1 h. After washing five times with PT, the plate was incubated with HRP-conjugated anti-M13 phage antibody (100 μL, 1:5000) in 0.1% PBT buffer for 30 min, and washed three times with PT, and twice with PBS. The plate was then developed using an o-phenylenediamine dihydrochloride/H2O2 solution (100 μL, 1 mg mL-1/0.02%) in citric acid buffer (50 mM citric acid, 50 mM Na2HPO4, pH 5.0), and the HRP activity was measured as absorbance at 450 nm.
The previously reported PSMA binding peptides, PSMA-1 (amino acid sequence, […] (SEQ ID NO:3)) and PSMA-2 (amino acid sequence, […] (SEQ ID NO:4)), were compared for affinity to the homodimeric and monomeric isoforms of PSMA. Details regarding PSMA-1 and PSMA-2 may be found in Yang, L. M. et al., Anal. Chem. 2006, 78, 3265-3270, which is incorporated by reference herein. Though diagnostically irrelevant, the monomeric isoform of PSMA provides a control for the binding specificity. […]

Another experiment concerns the target T2, PSMA dimer (Homo sapiens, UniProt Q04609).
T2 construct: purchased Molecular Express, Inc
Kind of experiment: phage-based ELISA, binding to PSMA dimer. On the procedure: as §1
The previously reported PSMA binding peptides, PSMA-1 (amino acid sequence, […] (SEQ ID NO:3)) and PSMA-2 (amino acid sequence, […] (SEQ ID NO:4)), were compared for affinity to the homodimeric and monomeric isoforms of PSMA. Details regarding PSMA-1 and PSMA-2 may be found in Yang, L. M. et al., Anal. Chem. 2006, 78, 3265-3270, which is incorporated by reference herein. Though diagnostically irrelevant, the monomeric isoform of PSMA provides a control for the binding specificity. […] Chosen for its specificity to the PSMA dimer, the PSMA-2 sequence provided the template for an affinity maturation library targeting the PSMA dimer.
(In general: ELISA stands for enzyme-linked immunosorbent assay.)

A further experiment addresses TfR (Homo sapiens, UniProt P02786). Kind of experiment: binding specificity, transferrin receptor.
For another experiment, the system named is casein. Kind of experiment: binding specificity, casein.

T2 sequence (Q04609 whole entry): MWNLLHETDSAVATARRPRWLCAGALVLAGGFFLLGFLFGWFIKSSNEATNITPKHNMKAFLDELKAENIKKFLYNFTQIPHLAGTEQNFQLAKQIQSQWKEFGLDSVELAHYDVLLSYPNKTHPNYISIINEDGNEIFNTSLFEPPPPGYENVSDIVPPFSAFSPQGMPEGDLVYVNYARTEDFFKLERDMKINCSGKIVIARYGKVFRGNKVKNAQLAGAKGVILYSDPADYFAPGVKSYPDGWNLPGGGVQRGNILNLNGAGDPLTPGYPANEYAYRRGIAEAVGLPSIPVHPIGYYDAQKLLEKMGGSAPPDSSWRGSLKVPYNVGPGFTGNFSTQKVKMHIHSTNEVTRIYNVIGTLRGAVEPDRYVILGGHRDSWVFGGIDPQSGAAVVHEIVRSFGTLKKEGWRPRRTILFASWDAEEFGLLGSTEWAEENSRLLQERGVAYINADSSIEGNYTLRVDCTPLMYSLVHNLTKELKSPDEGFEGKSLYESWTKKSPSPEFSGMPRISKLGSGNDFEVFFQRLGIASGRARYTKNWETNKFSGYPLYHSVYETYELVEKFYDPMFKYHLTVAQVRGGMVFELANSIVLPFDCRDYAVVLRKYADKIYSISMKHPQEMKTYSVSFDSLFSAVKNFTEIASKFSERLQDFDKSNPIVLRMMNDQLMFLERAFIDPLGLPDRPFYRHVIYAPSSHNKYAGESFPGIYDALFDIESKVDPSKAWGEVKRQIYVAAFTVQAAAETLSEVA
T1 sequence (Q04609 whole entry): as above
TfR, sequence (P02786 whole entry, species assumed): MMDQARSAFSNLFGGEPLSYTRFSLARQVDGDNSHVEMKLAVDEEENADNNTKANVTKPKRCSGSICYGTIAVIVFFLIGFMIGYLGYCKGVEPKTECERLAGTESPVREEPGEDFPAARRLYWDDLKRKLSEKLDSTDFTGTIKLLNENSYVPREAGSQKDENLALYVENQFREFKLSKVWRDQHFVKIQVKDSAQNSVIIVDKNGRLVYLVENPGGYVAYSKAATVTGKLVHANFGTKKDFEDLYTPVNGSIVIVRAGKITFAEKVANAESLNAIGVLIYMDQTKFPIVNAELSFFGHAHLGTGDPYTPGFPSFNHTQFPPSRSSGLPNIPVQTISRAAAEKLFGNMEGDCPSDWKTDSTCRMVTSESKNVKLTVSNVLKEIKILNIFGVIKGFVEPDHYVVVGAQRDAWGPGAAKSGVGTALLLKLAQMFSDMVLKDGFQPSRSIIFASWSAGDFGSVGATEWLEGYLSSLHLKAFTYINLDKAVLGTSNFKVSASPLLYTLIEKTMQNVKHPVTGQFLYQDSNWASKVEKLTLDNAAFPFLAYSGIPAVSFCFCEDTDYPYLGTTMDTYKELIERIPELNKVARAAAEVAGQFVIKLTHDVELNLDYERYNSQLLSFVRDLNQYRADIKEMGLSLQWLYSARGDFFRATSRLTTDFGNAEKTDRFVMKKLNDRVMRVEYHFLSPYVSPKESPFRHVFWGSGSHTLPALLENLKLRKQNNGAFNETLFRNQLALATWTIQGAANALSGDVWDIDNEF

Regarding “CALCEFLG (displayed on M13 phage) [PSMA-1]”, in the experiment with PSMA monomer, the “binding to PSMA monomer” value is “binds to both isoforms of PSMA”. Further, the “binding to PSMA dimer” value with PSMA dimer was “binds to both isoforms of PSMA”.
On to “LDCVEVFQNSCDW (displayed on M13 phage) [PSMA-2]”, for which, in the experiment with PSMA dimer, the “binding to PSMA dimer” value was “binds with high affinity and specificity to the PSMA dimer”.
“SECVEVFQNSCDW (displayed on M13 phage) [PSMA-3]”: the “binding to TfR” value with TfR is on record as “not”. Besides, in the experiment with PSMA monomer, the “binding to PSMA monomer” value is “not PSMA monomer”. The “binding to PSMA dimer” value in the experiment with PSMA dimer was “specific binding for the PSMA dimer”. Also, the binding to casein entry in the experiment with casein was “not”.
